Experimental data taken from patent US20090311283A1.

molecular target: HLA-A*6801 (human); assay: competition with 125I probe peptide on purified HLA-A*6801; relative to standard peptide 941.12; conditions: remark: other sources report otherwise

Compared with TSAICSVVR (modifications not checked) [HBV POL 519 peptide …], SAGPCALR (modifications not checked) [HBV X 65 peptide SAGPCALR] is lower in binding affinity ratio (IC50 standard peptide / IC50 test peptide): 0.082 for the first, 0.036 for the second.

molecular target: HLA-A*3101 (human); assay: competition with 125I-labelled probe peptide for purified HLA-A*3101, gel filtration; ratio to standard peptide 941.12; conditions: not given

PARDVLCLR (modifications not checked) [HBV X 11 peptide …] showed a binding affinity ratio (IC50 of standard peptide / IC50 of test peptide) of 0.01.

molecular target: HLA-A*1101 (human); assay: not given; conditions: remark: other sources report otherwise

Binder SAGPCALR (modifications not checked) [HBV X 65 peptide SAGPCALR] has a binding affinity ratio (IC50 standard peptide / IC50 test peptide) of 0.002.

molecular target: HLA-A*3301 (human); assay: not given; conditions: not given

With PARDVLCLR (modifications not checked) [HBV X 11 peptide …] the binding affinity ratio (IC50 of standard peptide / IC50 of test peptide) was 0.018.

same assay, conditions: remark: other sources report otherwise

Work on TSAICSVVR (modifications not checked) [HBV POL 519 peptide …] yielded a binding affinity ratio (IC50 standard peptide / IC50 test peptide) of 0.02.

molecular target: HLA-A*0301 (human); assay: competition with 125I probe peptide on purified HLA-A*0301; relative to standard peptide 941.12; conditions: remark: other sources report otherwise

Compared with TSAICSVVR (modifications not checked) [HBV POL 519 peptide …], SAGPCALR (modifications not checked) [HBV X 65 peptide SAGPCALR] is lower in binding affinity ratio (IC50 standard peptide / IC50 test peptide): 0.0005 for the first, -0.0002 for the second.

molecular target: HLA-B*5401 (Human); assay: competition with 125I-labelled probe peptide for purified HLA, gel filtration; conditions: not given

Binder LPLDKGIKPYY (modifications not checked) [HBV POL 123 peptide …] has a binding affinity ratio (IC50 of standard peptide / IC50 of test peptide) of 0.0001.

molecular target: HLA-A*0301 (human); assay: as above; conditions: not given

Binder VVRRRGRSPR (modifications not checked) [… (HBV NUC 177)] has a binding affinity ratio (IC50 of standard peptide / IC50 of test peptide) of 0.0027.

Going from VVRRRGRSPR (modifications not checked) [HBV NUC 177 peptide …] to WGMDIDPYK (modifications not checked) [HBV NUC 28 peptide …], the binding affinity ratio (IC50 of standard peptide / IC50 of test peptide) (ratio to standard peptide) falls from 0.0027 to -0.0003.

molecular target: HLA-B*5101 (Human); assay: as above; conditions: not given

LPLDKGIKPYY (modifications not checked) [HBV POL 123 peptide …] gave a binding affinity ratio (IC50 of standard peptide / IC50 of test peptide) of 0.0001.

molecular target: HLA-B*3501 (Human); assay: as above; conditions: not given

LPLDKGIKPYY (modifications not checked) [HBV POL 123 peptide …] showed a binding affinity ratio (IC50 of standard peptide / IC50 of test peptide) of 0.0009.

molecular target: HLA-A*0201 (human); assay: as above; conditions: not given

Going from PLEEELPRL (modifications not checked) to PLEEELPRLA (modifications not checked), the binding affinity ratio (IC50 of standard peptide / IC50 of test peptide) falls from 0.0003 to 0.0001.

Compared with PLGFFPDHQL (modifications not checked) [HBV ENV 10 peptide …], PIILGFRKI (modifications not checked) [HBV POL 496 peptide …] is lower in binding affinity ratio (IC50 of standard peptide / IC50 of test peptide): 0.0002 for the first, 0.0001 for the second.

PILSTLPET (modifications not checked) and PILSTLPETTV (modifications not checked) are the same in binding affinity ratio (IC50 of standard peptide / IC50 of test peptide): 0.0001 for the first, 0.0001 for the second.

PALMPLYACI (modifications not checked) [HBV POL 641 peptide …] and PILSTLPETT (modifications not checked) are the same in binding affinity ratio (IC50 of standard peptide / IC50 of test peptide): 0.0001 for the first, 0.0001 for the second.

molecular target: HLA-A*0301 (human); assay: competitive inhibition of 125I-labelled probe peptide binding to purified HLA, gel filtration; conditions: remark: other sources report otherwise; scale: ratio

Binder WLWGMDIDPYK (modifications not checked) [HBV NUC 26 peptide …] has a binding affinity ratio (relative binding to standard peptide) of 0.003.

same assay, conditions: scale: ratio

Compared with WIRTPPAY (modifications not checked) [HBV NUC 125 peptide WIRTPPAY], YLPLDKGIK (modifications not checked) is higher in binding affinity ratio (relative binding to standard peptide): -0.0002 for the first, 0.0001 for the second.

Going from YLVSFGVWIR (modifications not checked) [HBV NUC 118 peptide …] to YSLNFMGY (modifications not checked) [HBV POL 580 peptide YSLNFMGY], the binding affinity ratio (relative binding to standard peptide) falls from 0.0005 to -0.0002.

First: YLPLDKGIKPY (modifications not checked)
Second: WLQFRNSK (modifications not checked) [HBV POL 314 peptide WLQFRNSK]
The binding affinity ratio (relative binding to standard peptide) of the first is lower: -0.0004 for the first, -0.0002 for the second.

molecular target: HLA-A*3101 (human); assay: competition with 125I probe peptide on purified HLA-A*3101; relative to standard peptide 941.12; conditions: remark: other sources report otherwise

Going from TSAICSVVR (modifications not checked) [HBV POL 519 peptide …] to SAGPCALR (modifications not checked) [HBV X 65 peptide SAGPCALR], the binding affinity ratio (IC50 standard peptide / IC50 test peptide) falls from 0.06 to 0.0029.

molecular target: HLA-A*0201 (Human); assay: not given; conditions: not given

Going from STLPETTVV (modifications not checked) [HBV NUC 141 peptide …] to GLSPTVWL (modifications not checked) [HBV ENV 348 peptide GLSPTVWL], the binding affinity ratio (IC50 of standard peptide / IC50 of test peptide) rises from 0.0019 to 0.0036.

Going from ILLLCLIFL (modifications not checked) [HBV ENV 249 peptide …] to FIIFLFIL (modifications not checked) [HBV ENV 243 FIIFLFIL], the binding affinity ratio (IC50 of standard peptide / IC50 of test peptide) falls from 0.0015 to 0.0006.

First: SVRFSWLSLL (modifications not checked) [HBV ENV 330 peptide …]
Second: SLNFMGYVI (modifications not checked) [HBV POL 581 9-mer …]
The binding affinity ratio (IC50 of standard peptide / IC50 of test peptide) of the first is lower: 0.0004 for the first, 0.0038 for the second.

Going from FLVDKNPHNT (modifications not checked) [HBV POL 363 …] to IVGLLGFAA (modifications not checked) [HBV POL 625 peptide …], the binding affinity ratio (IC50 of standard peptide / IC50 of test peptide) falls from 0.0012 to 0.0009.

Going from GVWIRTPPA (modifications not checked) [HBV NUC 123 peptide …] to VLGGCRHKL (modifications not checked) [HBV X 133 peptide …], the binding affinity ratio (IC50 of standard peptide / IC50 of test peptide) falls from 0.003 to 0.0009.

Compared with GLSPTVWLSVI (modifications not checked) [HBV ENV 348 peptide …], FLFILLLCL (modifications not checked) [HBV ENV 246 …] is lower in binding affinity ratio (IC50 of standard peptide / IC50 of test peptide): 0.0036 for the first, 0.0002 for the second.

First: FVLGGCRHKL (modifications not checked) [HBV X 132 …]
Second: FTSAICSVV (modifications not checked) [HBV POL 518 …]
The binding affinity ratio (IC50 of standard peptide / IC50 of test peptide) of the first is lower: 0.003 for the first, 0.009 for the second.

First: FTGLYSSTV (modifications not checked) [HBV POL 59 …]
Second: GLLGFAAPFT (modifications not checked) [HBV POL 627 peptide …]
The binding affinity ratio (IC50 of standard peptide / IC50 of test peptide) of the first is lower: 0.0005 for the first, 0.0049 for the second.

Going from NLGNLNVSI (modifications not checked) [HBV POL 42 peptide …] to NLLSSNLSWL (modifications not checked) [HBV POL 406 peptide …], the binding affinity ratio (IC50 of standard peptide / IC50 of test peptide) (ratio to standard peptide) falls from 0.0047 to 0.0016.

Going from LVSFGVWI (modifications not checked) [HBV NUC 119 peptide LVSFGVWI] to NLNVSIPWT (modifications not checked) [HBV POL 45 peptide …], the binding affinity ratio (IC50 of standard peptide / IC50 of test peptide) (ratio to standard peptide) rises from 0.0004 to 0.0005.

same assay, conditions: remark: other sources report otherwise

Compared with VLHKRTLGL (modifications not checked) [HBV X 92 peptide …], RVTGGVFLV (modifications not checked) [HBV POL 357 9-mer …] is higher in binding affinity ratio (IC50 of standard peptide / IC50 of test peptide): 0.0012 for the first, 0.0041 for the second.

Work on VLCLRPVGA (modifications not checked) [HBV X 15 peptide …] yielded a binding affinity ratio (IC50 of standard peptide / IC50 of test peptide) of 0.0014.

molecular target: HLA-A*0201 (human); assay: not given; conditions: not given

First: LLGCAANWI (modifications not checked) [HBV POL 752 peptide …]
Second: LLDYQGML (modifications not checked) [HBV ENV 260 peptide LLDYQGML]
The binding affinity ratio (IC50 of standard peptide / IC50 of test peptide) of the first is higher: 0.0011 for the first, 0.0004 for the second.

Going from YVPSALNPA (modifications not checked) [HBV POL 768 peptide …] to LLTRILTI (modifications not checked) [HBV ENV 184 peptide LLTRILTI], the binding affinity ratio (IC50 of standard peptide / IC50 of test peptide) falls from 0.0039 to 0.0026.

Compared with LIFLLVLL (modifications not checked) [HBV ENV 254 peptide LIFLLVLL], WLLGCAANWI (modifications not checked) [HBV POL 751 10-mer peptide …] is higher in binding affinity ratio (IC50 of standard peptide / IC50 of test peptide): 0.0025 for the first, 0.0053 for the second.

First: WMCLRRFIIFL (modifications not checked) [HBV ENV 237 11-mer peptide …]
Second: WLSLDVSAA (modifications not checked) [HBV POL 414 9-mer peptide …]
The binding affinity ratio (IC50 of standard peptide / IC50 of test peptide) of the first is lower: 0.0019 for the first, 0.0059 for the second.
